Measurements taken from patent US20260258115A1 (MAPP BIOPHARMACEUTICAL, published 2026).
Substitutions are numbered along the chain they refer to.

B1: ADI-24795 (antibody, V domains shown)
VH: EVQLVESGGGLVKPGGSLRLSCAASGFTFSSYSMNWVRQAPGKGLEWVSSISSSSSYIYYADSVKGRFTISRDNAKNSLYLQMNSLRAEDTAVYYCARVGYSSSSGAFDYWGQGTLVTVSS
VL: QSVLTQPPSVSGAPGQRVTISCTGSSSNIGAGYDVHWYQQLPGTAPKLLIYGNSNRPSGVPDRFSGSKSGTSASLAITGLQAEDEADYYCQSYDSSLSGSVFGGGTKVTVL
notes: full-length IgG; also called Ab 363
B2: ADI-24858 (antibody, V domains shown)
VH: EVQLLESGGGLVKPGGSLRLSCAASGFTFSSYSMNWVRQAPGKGLEWVSSISSSSSYIYYADSVKGRFTISRDNAKNSLYLQMNSLRAEDTAVYYCARGGYSYGYSFDYWGQGTLVTVSS
VL: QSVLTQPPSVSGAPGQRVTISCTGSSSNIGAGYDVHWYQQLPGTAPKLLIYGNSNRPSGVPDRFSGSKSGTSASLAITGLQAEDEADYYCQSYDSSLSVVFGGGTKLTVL
notes: full-length IgG
B3: ADI-24845 (antibody, V domains shown)
VH: EVQLVESGGGLVKPGGSLRLSCAASGFTFSSYSMNWVRQAPGKGLEWVSSISSSSSYIYYADSVKGRFTISRDNAKNSLYLQMNSLRAEDTAVYYCARDYCSGGSCYLAAFDIWGQGTTVTVSS
VL: QPVLTQPASVSGSPGQSITISCTGTSSDVGGYNYVSWYQQHPGKAPKLMIYEVSNRPSGVSNRFSGSKSGNTASLTISGLQAEDEADYYCSSYTSSSTPVVFGGGTKLTVL
notes: full-length IgG
B4: ADI-24823 (antibody, V domains shown)
VH: EVQLLESGGGLVKPGGSLRLSCAASGFTFSSYSMNWVRQAPGKGLEWVSSISSSSSYIYYADSVKGRFTISRDNAKNSLYLQMNSLRAEDTAVYYCAREGDYYGSGRPFDYWGQGTLVTVSS
VL: QSVVTQPPSVSGAPGQRVTISCTGSSSNIGAGYDVHWYQQLPGTAPKLLIYGNSNRPSGVPDRFSGSKSGTSASLAITGLQAEDEADYYCQSYDSSLSVVFGGGTKLTVL
notes: full-length IgG
B5: ADI-25556 (antibody, V domains shown)
VH: QVQLVQSGGGLVKPGGSLRLSCAASGFTFSSYSMNWVRQAPGKGLEWVSSISSSSSYIYYADSVKGRFTISRDNAKNSLYLQMNSLRAEDTAVYYCARQRGGIAVAGTYFDLWGRGTLVTVSS
VL: QSVLTQPPSVSGAPGQRVTISCTGSSSNIGAGYDVHWYQQLPGTAPKLLIYGNSNRPSGVPDRFSGSKSGTSASLAITGLQAEDEADYYCQSYDSTVVFGGGTKVTVL
notes: full-length IgG; also called Ab 450
B6: ADI-19440 (antibody, V domains shown)
VH: EVQLVESGGGLVQPGGSLRLSCAASGFTFSSYSMNWVRQAPGKGLEWVSYISSSSSTIYYADSVKGRFTISRDNAKNSLYLQMNSLRAEDTAVYYCAREGYSGSYGYYFDYWGQGTLVTVSS
VL: B1 VL with G104T, V108L
notes: full-length IgG
B7: ADI-24800 (antibody, V domains shown)
VH: EVQLLESGGGLVKPGGSLRLSCAASGFTFSSYSMNWVRQAPGKGLEWVSSISSSSSYIYYADSVKGRFTISRDNAKNSLYLQMNSLRAEDTAVYYCARVRGGYSYGYGMDVWGQGTTVTVSS
VL: B1 VL with L4V, Y33F, R63Q, S100V, V108L
notes: full-length IgG
B8: ADI-25557 (antibody, V domains shown)
VH: B6 VH with V5L, Q13K, Y50S, T57Y, E99G, G100Y, Y101G, G106L, Y107D
VL: QPGLTQPPSVSGAPGQRVTISCTGSSSNIGAGYDVHWYQQLPGTAPKLLIYGNSNRPSGVPDRFSGSKSGTSASLAITGLQAEDEADYYCQSYDSSLSGFYVFGTGTKLTVL
notes: full-length IgG
B9: ADI-19430 (antibody, V domains shown)
VH: QVQLVQSGAEVKKPGSSVKVSCKASGGTFSSYTISWVRQAPGQGLEWMGRIIPILGIANYAQKFQGRVTITADKSTSTAYMELSSLRSEDTAVYYCARDGGPYYYDSSGYYRLDYWGQGTLVTVSS
VL: DIRMTQSPLSLPVTLGQPASISCRSSQSLVYSDGNTYLNWFQQRPGQSPRRLIYKVSNRDSGVPDRFSGSGSGTDFTLKISRVEAEDVGVYYCMQGTHWTYTFGQGTKLEIK
notes: full-length IgG
B10: ADI-19449 (antibody, V domains shown)
VH: B1 VH with V99D, G100S, Y101G, S103Y, S104L, G106Y, Y110I, L116M
VL: B1 VL with Q1S, S2Y, V3E, S100Y, G104T
notes: full-length IgG
B11: ADI-19450 (antibody, V domains shown)
VH: EVQLLESGGGLVQPGGSLRLSCAASGFTFSSYWMHWVRQAPGKGLVWVSRINSDGSSTSYADSVKGRFTISRDNAKNTLYLQMNSLRAEDTAVYYCARAPISILRFLGGYFDYWGQGTLVTVSS
VL: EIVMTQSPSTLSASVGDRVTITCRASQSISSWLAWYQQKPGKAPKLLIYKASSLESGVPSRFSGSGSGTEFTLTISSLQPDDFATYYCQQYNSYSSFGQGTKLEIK
notes: full-length IgG; also called Ab 160
B12: ADI-19454 (antibody, V domains shown)
VH: B3 VH with V5L, D99G, L108S, A109H, A110Y, D112Q, I113H, T119L
VL: QSVLTQPASVSGSPGQSITISCTGTSSDVGGYNYVSWYQQHPGKAPKLMIYDVSNRPSGVSNRFSGSKSGNTASLTISGLQAEDEADYYCSSYTSSSTVVFGGGTKVTVL
notes: full-length IgG
B13: ADI-19457 (antibody, V domains shown)
VH: EVQLLESGGGLVKPGGSLRLSCAASGFTFSSYSMNWVRQAPGKGLEWVSSISSSSSYIYYADSVKGRFTISRDNAKNSLYLQMNSLRAEDTAVYYCARQGYCSGGSCYHIDYWGQGTLVTVSS
VL: B1 VL with L4V, S100W, V108L
notes: full-length IgG
B14: ADI-19460 (antibody, V domains shown)
VH: QVQLQQWGAGLLKPSETLSLTCAVYGGSFSGYYWSWIRQPPGKGLEWIGEINHSGSTNYNPSLKSRVTISVDTSKNQFSLKLSSVTAADTAVYYCARGGITAYYYYYGMDVWGQGTTVTVSS
VL: not shown
notes: full-length IgG
B15: ADI-25548 (antibody, V domains shown)
VH: EVQLVESGGGLIQPGGSLRLSCAASGFTVSSNYMSWVRQAPGKGLEWVSVIYSGGSTYYADSVKGRFTISRDNSKNTLYLQMNSLRAEDTAVYYCARGPQFGVSYSSGWYSFDYWGQGTLVTVSS
VL: QSVLIQPRSVSGSPGQSVTISCTGTSSDVGGYNYVSWYQQHPGKAPKLMIYDVSKRPSGVPDRFSGSKSGNTASLTISGLQAEDEADYYCCSYAGSYTFVVFGGGTKLTVL
notes: full-length IgG
B16: ADI-25468 (antibody, V domains shown)
VH: QVQLVQSGAEVKKPGESLKISCKGSGYSFTSYWIGWVRQMPGKGLEWMGIIYPGDSDTRYSPSFQGQVTISADKSISTAYLQWSSLKASDTAMYYCARHVGQVYCSSTSCYTSREYYFDYWGQGTLVTVSS
VL: not shown
notes: full-length IgG
B17: ADI-25598 (antibody, V domains shown)
VH: QVQLQESGPGLVKPSETLSLTCTVSPPSISSSSYYWGWIRQPPGKGLEWIGSIYYSGSTYYNPSLKSRVTISVDTSKNQFSLKLSSVTAADTAVYYCARPDSSGAFDIWGQGTMVTVSS
VL: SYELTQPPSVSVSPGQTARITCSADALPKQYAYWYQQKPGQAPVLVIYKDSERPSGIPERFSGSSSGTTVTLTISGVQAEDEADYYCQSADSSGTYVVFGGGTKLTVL
notes: full-length IgG

target: T1, RSV postfusion F (postF), subtype A (respiratory syncytial virus subtype A, UniProt P03420 26-513); assay: BLI
T1 construct: also called Postfusion subtype A; F deltaFP

| Binder | binding result |
| --- | --- |
| B1 | no binding |
| B2 | no binding |
| B3 | no binding |
| B4 | no binding |
| B5 | no binding |
| B6 | no binding |
| B7 | no binding |
| B8 | no binding |
| B9 | no binding |
| B10 | no binding |
| B11 | no binding |
| B12 | no binding |
| B13 | no binding |
| B14 | no binding |
| B15 | no binding |
| B16 | no binding |
| B17 | no binding |

target: T2, RSV prefusion F (preF), subtype B (respiratory syncytial virus subtype B); assay: BLI, IgG
T2 construct: also called Prefusion subtype B

| Binder | Kd |
| --- | --- |
| B1 | 34.2 nM |
| B2 | 26.3 nM |
| B3 | 36.7 nM |
| B4 | 6.03 nM |
| B5 | 42 nM |
| B6 | 14.3 nM |
| B7 | 51.4 nM |
| B8 | 33.3 nM |
| B9 | 16.8 nM |
| B10 | 26 nM |
| B11 | 38.6 nM |
| B12 | 15.7 nM |
| B13 | 16.7 nM |
| B14 | 6.01 nM |
